# In US20180128830A1, “DETECTION OF HUMAN CYTOMEGALOVIRUS IN BREAST CANCER” (priority 2015, published 2018):
# Values joined by “and” are separate entries in the source; they are usually repeats but may differ in a detail not shown here. Equal entries are not always repeated.
# Tested on: MDA-MB-231 cells
# Experiment: Transcriptional profiling, Human Tumor Metastasis RT2 Profiler PCR Array
# Type: cell-based
# Conditions: 100 ng/mL, 5 hrs
# Protocol: RNA was harvested from 10×10^6 MDA-MB-231 cells that were mock treated or treated with 100 ng/mL cmvIL-10 or hIL-10 for 5 hrs using the RNeasy Midi Kit and RNAse-Free DNase set (Qiagen, Valencia, Calif.). From the isolated RNA, cDNA was prepared using the RT^2 First Strand Kit (SA Biosciences, Frederick, Md.) and subsequently loaded into a 96-well breast cancer metastasis profiler PCR array (PAHS-028ZD) with system RT^2 SYBR Green Mastermix (SA Biosciences). The plates were run using the CFX96 Real-Time system cycler (BioRad, Hercules, Calif.) with the following amplification program: 95° C. for 10 min, 95° C. for […] with a slow ramp rate for 1.0 c/sec and 60° C. for 1 min. The data from three biological replicates for each treatment was analyzed by the ΔΔCT method according to manufacturer's instructions using the RT^2 profiler PCR array data analysis program located on the SABiosciences web portal and is reported as fold change relative to control.
molecule,measurement,setting,value
cmvIL-10 (protein) ATTTTIKNTKPQCRPEDYATRLQDLRVTFHRVKPTLQREDDYSVWLDGTVVKGCWGCSVMDWLLRRYLEIVFPAGDHVYPGLKTELHSMRSTLESIYKDMRQCPLLGCGDKSVISRLSQEAERKSDNGTRKGLSELDTLFSRLEEYLHSRK,"Fold Change vs. Mock, ACTB",ACTB mRNA,1.0986 fold
same,"Fold Change vs. Mock, APC",APC mRNA,0.9681 fold
same,"Fold Change vs. Mock, B2M",B2M mRNA,0.9597 fold
same,"Fold Change vs. Mock, BRMS1",BRMS1 mRNA,0.8029 fold
same,"Fold Change vs. Mock, CCL7",CCL7 mRNA,0.8113 fold
same,"Fold Change vs. Mock, CD44",CD44 mRNA,1.1473 fold
same,"Fold Change vs. Mock, CD82",CD82 mRNA,0.6917 fold
same,"Fold Change vs. Mock, CDH1",CDH1 mRNA,0.6288 fold
same,CDH6 fold change expressed as negative fold (down-regulation),CDH6 mRNA,−1.23 fold
same,"Fold Change vs. Mock, CDH6",CDH6 mRNA,0.811 fold and 0.8113 fold
same,"Fold Change vs. Mock, CDH11",CDH11 mRNA,0.9033 fold
same,"Fold Change vs. Mock, CDKN2A",CDKN2A mRNA,0.8113 fold
same,"Fold Change vs. Mock, CHD4",CHD4 mRNA,0.8970 fold
same,"Fold Change vs. Mock, COL4A2",COL4A2 mRNA,1.0929 fold
same,"Fold Change vs. Mock, CST7",CST7 mRNA,0.7149 fold
same,"Fold Change vs. Mock, CTBP1",CTBP1 mRNA,0.6245 fold
same,"Fold Change vs. Mock, CTNNA1",CTNNA1 mRNA,0.8816 fold
same,"Fold Change vs. Mock, CTSK",CTSK mRNA,0.8043 fold
same,"Fold Change vs. Mock, CTSL1",CTSL1 mRNA,0.8212 fold
same,"Fold Change vs. Mock, CXCL12",CXCL12 mRNA,0.8113 fold
same,"Fold Change vs. Mock, CXCR4",CXCR4 mRNA,0.8084 fold
same,"Fold Change vs. Mock, DENR",DENR mRNA,0.9816 fold
same,"Fold Change vs. Mock, EPHB2",EPHB2 mRNA,0.6693 fold
same,"Fold Change vs. Mock, ETV4",ETV4 mRNA,0.5418 fold
same,"Fold Change vs. Mock, EWSR1",EWSR1 mRNA,0.9465 fold
same,"Fold Change vs. Mock, FAT1",FAT1 mRNA,1.2752 fold
same,"Fold Change vs. Mock, FGFR4",FGFR4 mRNA,0.5362 fold
same,"Fold Change vs. Mock, FLT4",FLT4 mRNA,0.8113 fold
same,"Fold Change vs. Mock, FN1",FN1 mRNA,1.1044 fold
same,"Fold Change vs. Mock, FXYD5",FXYD5 mRNA,0.9400 fold
same,"Fold Change vs. Mock, GAPDH",GAPDH mRNA,0.9335 fold
same,"Fold Change vs. Mock, GNRH1",GNRH1 mRNA,0.9970 fold
same,"Fold Change vs. Mock, HGF",HGF mRNA,0.8113 fold
same,"Fold Change vs. Mock, HPRT1",HPRT1 mRNA,1.2796 fold
same,"Fold Change vs. Mock, HPSE",HPSE mRNA,0.8620 fold
same,"Fold Change vs. Mock, HRAS",HRAS mRNA,1.0075 fold
same,"Fold Change vs. Mock, HTATIP2",HTATIP2 mRNA,0.7439 fold
same,"Fold Change vs. Mock, IGF1",IGF1 mRNA,0.8635 fold
same,"Fold Change vs. Mock, IL1B",IL1B mRNA,0.6266 fold
same,"Fold Change vs. Mock, IL18",IL18 mRNA,0.7362 fold
same,"Fold Change vs. Mock, ITGA7",ITGA7 mRNA,0.561 fold and 0.5609 fold
same,ITGA7 fold change expressed as negative fold (down-regulation),ITGA7 mRNA,−1.78 fold
same,"Fold Change vs. Mock, ITGB3",ITGB3 mRNA,1.0198 fold
same,"Fold Change vs. Mock, KISS1R",KISS1R mRNA,0.8113 fold
same,"Fold Change vs. Mock, KISS1",KISS1 mRNA,1.1394 fold
same,"Fold Change vs. Mock, KRAS",KRAS mRNA,1.0304 fold
same,"Fold Change vs. Mock, MCAM",MCAM mRNA,0.768 fold and 0.7688 fold
